A short description of this data set: yeast display, Sf9 membrane polyspecificity reagent, FACS + sequencing; frameworks hold sequencing errors. The method in brief:
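A synthetic nanobody library was expressed on Saccharomyces cerevisiae BJ5465 by galactose induction for 36–48 hours. The library was stained for 1 hour at 4 °C with 10% biotinylated, detergent-solubilized Sf9 membrane reagent and enriched with streptavidin microbeads before FACS. Low and high (top ~1%) gates were set on anti-HA fluorescence for expression and streptavidin fluorescence for reagent binding, and each polyreactivity label reflects the gate of origin.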
As for “QVQLVESGGGLVQAGGSLRLSCAASGYIFPYNVMGWSRQAPGKERELVAAITWRVVRTYYADSVKGRFTISRDNAKNTVYLQMNSLKPEDTAVYYCAALSRQSGDYWGQGTQVTVSS”, the “polyreactivity (PSR sort gate)” value was “high polyreactivity”.
As to “QVQLVESGGGLVQAGGSLRLSCAASGYIFQRDAMGWYRTAPGKEREFVAAIRYSGGSTYYADSVKGRFTISRDNAKNTVYLQMNCLKPEDTAVYYCAADQRDPWRSAYGYYYWGQGTQVTVSS”, the “polyreactivity (PSR sort gate)” value is on record as “high polyreactivity”.
Turning to “QVQLVESGGGLVQAGGSLRLSCAASGYIFQVNAMGWYRQAPGKERELVASISCGGSTNYADSVKGRFTISRDNAKNTVYLQMNSLKPEDTAVYYCAAELGYPYLQYVYWSQYLYDYWGQGTQVTVSS”, the “polyreactivity (PSR sort gate)” value was “low polyreactivity”.
In the case of “QVQLVESGGGLVQAGGSLRLSCAASGYIFRYNAMGWYRQAPGKEREFVASISQRGGSTYYADSVKGRFTISRDNAKNTVYLQMNSLKPEDTAVYYCAARLGYYSYEYNYWGQGTQVTVSS”, the “polyreactivity (PSR sort gate)” value is listed as “high polyreactivity”.
For “QVQLVESGGGLVQAGGSLRLSCAASGYIFSGNAMGWYRQAPGKERELVAAITRSDVNTDYADSVKGRFTISRDNAKNTVYLQMNSLKPEDTAVYSCNTRVRASSVDYDEGDYWGQGTQVTVSS”, the “polyreactivity (PSR sort gate)” value is recorded as “low polyreactivity”.
In the case of “QVQLVESGGGLVQAGGSLRLSCAASGYIFSLNAMGWYRQAPGKERELVAGIRKRGGSTYYADSVKGRFTISRDNAKNTVYLQMNSLKPEDTAVYYCAAQPALTYRFYYWGQGTQVTVSS”, the “polyreactivity (PSR sort gate)” value is reported as “high polyreactivity”.
“QVQLVESGGGLVQAGGSLRLSCAASGYIFTIYAMGWYRQAPAKEREFVAAITWSGGRTYYADSVKGRFTISRDTAKNTVYLQMNSLKPEDSAVDYGAARVANYLSQMYYWGQGTQVTVSS”: the “polyreactivity (PSR sort gate)” value is “high polyreactivity”.
With “QVQLVESGGGLVQAGGSLRLSCAASGYIFVFNTMGWYRQAPGKERELVASISWDAGTTYYADSVKGRFTISRDNAKNTVYLQMNSLKPEDTAVDYCNAGRIRSGYLDYWGQGTQVTVSS”, the “polyreactivity (PSR sort gate)” value is “low polyreactivity”.
With “QVQLVESGGGLVQAGGSLRLSCAASGYIFVRYAMGWYRQAPGKERELVAAINSSGGRTYYADSVKGRFTISRDNAKNTVYLQLNSLKPEDTAVYYCAAYGYYRSGYRALEGYWGQGTQVTVAS”, the “polyreactivity (PSR sort gate)” value is recorded as “high polyreactivity”.
Turning to “QVQLVESGGGLVQAGGSLRLSCAASGYIFVRYAMGWYRQAPGKERELVAAINSSRGRTYYADSVKGRFTISRDNAKNTVSLQMNSLKPEDTAVYYCGAYGYYRSGYRALEGYWGQGTQVTVSS”, the “polyreactivity (PSR sort gate)” value was “high polyreactivity”.
Consider “QVQLVESGGGLVQAGGSLRLSCAASGYIFVYYAMGWYRQAPGKEREMVAAISSSGDTTYYADSVKGRFTISRDNAKNTVYLQMNSLKPEDTAVYYCAARVRGYSHASNYYWGQGTQVTVSS”, for which the “polyreactivity (PSR sort gate)” value was “high polyreactivity”.
As for “QVQLVESGGGLVQAGGSLRLSCAASGYIFVYYVMGWYRQAPGKERELVTAIDGNGVSTYYADSVKGRFSISRDNAKYSVYLQMNSLKPDDTAVYYCAADYLYHQTSRGKYYSWGQGTQVTVSS”, the entry is “low polyreactivity”; as for “QVQLVESGGGLVQAGGSLRLSCAASGYIFWGNAMGWYRQAPGKERELVAAISYIGGSTYYADSVKGRFTISRDNAKNTVYLQMNSLKPEDTAVYYCAKRVLHQPYYHGVSGRRYDYWGQGTQVTVSS”, “high polyreactivity”; as for “QVQLVESGGGLVQAGGSLRLSCAASGYIFWSYAMGWYRQAPGKERELVAGITASGGSTYYADSVKGRFTISRDNAKNTVYLQMNSLKPEDTAVYYCAAEAYTQYWIYYYWGQCTQVTVSS”, “high polyreactivity”.
For “QVQLVESGGGLVQAGGSLRLSCAASGYIFYAYAMGWSRQAPGKERELVAAISSGGGRTYYADSVKGRFTISRDNAKNTVYLQMNSLKPEDTAVYYCAARRRDRGEYYYWGQGTQVTVSS”, the “polyreactivity (PSR sort gate)” value is “high polyreactivity”.
As for “QVQLVESGGGLVQAGGSLRLSCAASGYIFYFNDMGWYRQAPGKERELVADITYSGDSTYYADSVKGRFTISRDNAKNTVYLQMNSLKPEDTAVYYCAARRGWWYRGDDYWGQGTQVNVSS”, the entry is “low polyreactivity”; as for “QVQLVESGGGLVQAGGSLRLSCAASGYIFYQYAMGWDRQAPGKERELVAGINWRGGSTYADSVKGRFTISRDNAKITVYLQMNSLKPEDTEVYYCNANQYRQDVFRRPSYYAYYYWGQGTQVTVSS”, “high polyreactivity”.
As for “QVQLVESGGGLVQAGGSLRLSCAASGYIFYRYAMGWYRQAPGKEREFVASITKRGGRTFYADSVKGRFTISRDNAKNTVYLQMNSLKPEDTAVYYCARKAEYGTDMGYWGQGTQVTVSS”, the entry is “high polyreactivity”; as for “QVQLVESGGGLVQAGGSLRLSCAASGYIFYSCAMGWYRQAPGKERELVATISSGGSTYYSDSVKGRFTISRDNAKNTVYLQMNSLKPEDTAVYYCNAKMYKPPFDYWGQGTQVTVSS”, “low polyreactivity”.
Consider “QVQLVESGGGLVQAGGSLRLSCAASGYIFYTYAMGWYRQAPGKERELVASIDSGGSTNYADSVKGRFTISRDNAKNTVYLQMNSLKPEDTAVYYCAADVIVRVYYYYYVLMDYWGHGTQVTVSS”, for which the “polyreactivity (PSR sort gate)” value was “low polyreactivity”.
Take “QVQLVESGGGLVQAGGSLRLSCAASGYIFYYNAMGWYRQAPGKERELVADITWSGDSTYYADSVKGRFTISRYNAKNTVYLQMNSLKPEDTAVYYCAAEYLEYWDYDIMDYWGQGTQVTVSS”: the “polyreactivity (PSR sort gate)” value is recorded as “low polyreactivity”.
In the case of “QVQLVESGGGLVQAGGSLRLSCAASGYIFYYNTMGWYRQAPGKERELVAAIRSSGGSTYYADSVKGRFTISRDNAKNTVYLQMNSLKPEDTAVYYCAARPYRTKLIYGYWGQGTQVTVSS” it was “high polyreactivity”; in that of “QVQLVESGGGLVQAGGSLRLSCAASGYIFYYYAMGWYRQAPGKERELVAAITFSGGSTYYADSVKGRFTISRDNAKNNVYLQMNRLKPEDTAGYYCAKVELRDAAELGSDEYDYWGQGTQVTVSS”, “low polyreactivity”.
Consider “QVQLVESGGGLVQAGGSLRLSCAASGYIGNYPMGWYRQAPGKESELVAAITTSGGRTYYADSVKGRFTISRDNAKNTVYVQMNSLKPEDTAVYYCAAPWRLFSLYDYWGQGTQVTVSS”, for which the “polyreactivity (PSR sort gate)” value is listed as “low polyreactivity”.
Turning to “QVQLVESGGGLVQAGGSLRLSCAASGYILGGNAMGWYRQAHGKERELDAVIRKSGGSTYADSVKGRFTISRDNAKNSVYLQMNSLKPEDTAVYYCNADTLAGVYFYQSDYWGQGTQVTVSS”, the “polyreactivity (PSR sort gate)” value was “low polyreactivity”.
In the case of “QVQLVESGGGLVQAGGSLRLSCAASGYILGVYAMGWYRQAPGKERELVASISRSGGSTYYADSVKGRFTISRDNAKNTVYLQMNSLKPEDTAVYYCATRSRTAHFRLRYDYWGQGTQVTVSS” it was “low polyreactivity”.
With “QVQLVESGGGLVQAGGSLRLSCAASGYILHPNAMRWYRQSPGKDRELVAAIRWRGGSTYYADSVKGRFTISRDNAKNTVYLQMNSLKPEDTAVYYCAADKSKYRAFDYWGQGTQVTVSS”, the “polyreactivity (PSR sort gate)” value is on record as “high polyreactivity”.
Take “QVQLVESGGGLVQAGGSLRLSCAASGYILIYNAMGWYRQAPGTERELVAAINYRGDRTYYADSVKGRFTISRDNAKNTVYLQMNSLKPEDTAVYYCAKDYPYYGRYYRYPYDSWGQGTQVTVSS”: the “polyreactivity (PSR sort gate)” value is “high polyreactivity”.
Regarding “QVQLVESGGGLVQAGGSLRLSCAASGYILPKNTMGWYRQAPGKERELVAAISWSGGSTFYADSVKGRFTISRDNAKHTVYLQMNSLKPEDTAVYYCAADRSWSWYYRYDYWGQGTQVTVSS”, the “polyreactivity (PSR sort gate)” value is “low polyreactivity”.
Regarding “QVQLVESGGGLVQAGGSLRLSCAASGYILPKNTMGWYRQAPGKERELVAAISWSGGSTFYADSVKGRFTISRDNAKNTVYLQMNSLKPEDTAVYYCAADRSWSWYYRYDYWGQGTQVTVSS”, the “polyreactivity (PSR sort gate)” value is reported as “low polyreactivity”.
